In general, EC50 refers to the concentration needed to bring the measured effect to its halfway point. By IC50 is commonly meant the midpoint of a concentration-inhibition curve.

Assay [1] concerns the target T1, VEGF (VEGF 1-165 aa, R&D Systems 293-VE-010) (UniProt P15692 27-191).
T1 construct: bought reagent; also called vascular endothelial growth factor
The assay is described as follows: Direct bind ELISA, VEGF coated on plate; VEGF domain C-term., HC short/LC short. (In general: An ELISA detects its analyte on a solid surface through an enzyme-linked reagent.)

The target of assay [2] is T1, VEGF (VEGF 1-165 aa, R&D Systems …). The assay is described as follows: Direct bind ELISA, VEGF coated on plate; VEGF domain N-term., HC short/LC short.
For assay [3], the target named is T2, recombinant human HGF (human, UniProt P14210 32-728).
T2 construct: The target there is entered as this HGF; also called hepatocyte growth factor
The assay is described as follows: competition ELISA: DVD-Ig co-incubated with 2 nM soluble c-Met Fc on coated HGF (competitor c-Met Fc).

T1 sequence (P15692 other isoform, or with tags, fused parts or gaps limits assumed): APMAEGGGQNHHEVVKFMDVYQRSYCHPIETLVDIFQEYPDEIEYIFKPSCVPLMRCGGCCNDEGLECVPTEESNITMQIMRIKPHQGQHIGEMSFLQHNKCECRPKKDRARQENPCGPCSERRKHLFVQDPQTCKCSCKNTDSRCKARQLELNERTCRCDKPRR
T2 sequence (P14210 32-728 limits assumed): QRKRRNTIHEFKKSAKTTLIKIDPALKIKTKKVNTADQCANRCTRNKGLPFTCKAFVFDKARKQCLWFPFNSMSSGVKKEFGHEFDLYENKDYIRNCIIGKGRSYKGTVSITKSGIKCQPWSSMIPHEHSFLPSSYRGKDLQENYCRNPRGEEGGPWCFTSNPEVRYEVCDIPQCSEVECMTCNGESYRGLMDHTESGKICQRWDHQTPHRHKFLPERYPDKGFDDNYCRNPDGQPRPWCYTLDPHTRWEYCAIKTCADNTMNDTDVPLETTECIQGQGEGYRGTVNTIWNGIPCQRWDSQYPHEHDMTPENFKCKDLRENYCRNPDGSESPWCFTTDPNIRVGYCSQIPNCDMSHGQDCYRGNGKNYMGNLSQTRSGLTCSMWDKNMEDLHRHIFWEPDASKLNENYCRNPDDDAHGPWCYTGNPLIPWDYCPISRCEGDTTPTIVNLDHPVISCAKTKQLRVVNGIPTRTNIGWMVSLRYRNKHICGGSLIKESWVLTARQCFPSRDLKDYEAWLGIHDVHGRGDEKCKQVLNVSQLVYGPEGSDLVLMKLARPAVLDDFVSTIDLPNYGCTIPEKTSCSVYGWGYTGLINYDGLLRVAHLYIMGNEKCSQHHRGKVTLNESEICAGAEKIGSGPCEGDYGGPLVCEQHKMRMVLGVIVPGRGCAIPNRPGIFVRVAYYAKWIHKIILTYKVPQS

B1: DVD491 (bispecific antibody, human IgG1, kappa)
heavy: not shown
light: DIQMTQSSSYLSVSLGGRVTITCKASDHINNWLAWYQQKPGNAPRLLISGATSLETGVPSRFSGSGSGKDYTLSITSLQTEDVATYYCQQYWSIPLTFGAGTKLELKRTVAAPDIQMTQSPSSLSASVGDRVTITCRASQVIRRSLAWYQQKPGKAPKLLIYAASNLASGVPSRFSGSGSGTDFTLTISSLQPEDFATYYCQQSNTSPLTFGQGTKVEIKRTVAAPSVFIFPPSDEQLKSGTASVVCLLNNFYPREAKVQWKVDNALQSGNSQESVTEQDSKDSTYSLSSTLTLSKADYEKHKVYACEVTHQGLSSPVTKSFNRGEC
notes: DVD-Ig; N-term; AB072 (DLL4), C-term; AB071 (VEGF); HC linker short, LC linker short; also called DVD-Ig DVD491; DVD491H/DVD491L
In the case of B1, the midpoint of the response in assay [1], the EC50, lay at 1250 nM.

B2: DVD513 (bispecific antibody, human IgG1, kappa)
heavy: not shown
light: QAVVTQESALTTSPGETVTLTCRSSTGAVTTSNYANWVQEKPDHLFTGLIGGTNNRAPGVPARFSGSLIGDKAALTITGAQTEDEAIYFCALWYSNHWVFGGGTKLTVLGQPKAAPDIQMTQSPSSLSASVGDRVTITCRASQDVSTAVAWYQQKPGKAPKLLIYSASFLYSGVPSRFSGSGSGTDFTLTISSLQPEDFATYYCQQSYTTPPTFGQGTKVEIKRTVAAPSVFIFPPSDEQLKSGTASVVCLLNNFYPREAKVQWKVDNALQSGNSQESVTEQDSKDSTYSLSSTLTLSKADYEKHKVYACEVTHQGLSSPVTKSFNRGEC
notes: DVD-Ig; N-term; AB073 (DLL4), C-term; AB070 (VEGF); HC linker short, LC linker short; also called DVD-Ig DVD513; DVD513H/DVD513L
In assay [1], B2 yielded an EC50 of 58.5 nM.

B3: DVD492 (bispecific antibody, human IgG1, kappa)
heavy: not shown
light: DIQMTQSPSSLSASVGDRVTITCRASQVIRRSLAWYQQKPGKAPKLLIYAASNLASGVPSRFSGSGSGTDFTLTISSLQPEDFATYYCQQSNTSPLTFGQGTKVEIKRTVAAPDIQMTQSSSYLSVSLGGRVTITCKASDHINNWLAWYQQKPGNAPRLLISGATSLETGVPSRFSGSGSGKDYTLSITSLQTEDVATYYCQQYWSIPLTFGAGTKLELKRTVAAPSVFIFPPSDEQLKSGTASVVCLLNNFYPREAKVQWKVDNALQSGNSQESVTEQDSKDSTYSLSSTLTLSKADYEKHKVYACEVTHQGLSSPVTKSFNRGEC
notes: DVD-Ig; N-term; AB071 (VEGF), C-term; AB072 (DLL4); HC linker short, LC linker short; also called DVD-Ig DVD492; DVD492H/DVD492L
The molecule B3 displayed an EC50 in assay [2] of 8.42 nM.

B4: DVD034 (HGF (seq. 1) N-terminal / RON (seq. 1) C-terminal DVD-Ig) (bispecific antibody, human IgG1, kappa)
heavy: not shown
light: DIQMTQSPSSVSASVGDRVTITCRASQGISSWLAWYQQKPGKAPNLLIYEASSLQSGVPSRFGGSGSGTDFTLTISSLQPEDFATYYCQQANGFPWTFGQGTKVEIKRTVAAPDVVMTQSPLSLPVTPGEPASISCRSSQSLLHSNGFNYVDWYLQKPGQSPHLLIYFGSYRASGVPDRFSGSGSGTDFTLKISRVEAEDVGVYYCMQALQTPPWTFGQGTKVEIRRTVAAPSVFIFPPSDEQLKSGTASVVCLLNNFYPREAKVQWKVDNALQSGNSQESVTEQDSKDSTYSLSSTLTLSKADYEKHKVYACEVTHQGLSSPVTKSFNRGEC
notes: also called DVD034H/DVD034L
Regarding B4, the IC50 in assay [3] is 0.34 nM.

B5: DVD489 (bispecific antibody, human IgG1, kappa, L234A L235A)
heavy: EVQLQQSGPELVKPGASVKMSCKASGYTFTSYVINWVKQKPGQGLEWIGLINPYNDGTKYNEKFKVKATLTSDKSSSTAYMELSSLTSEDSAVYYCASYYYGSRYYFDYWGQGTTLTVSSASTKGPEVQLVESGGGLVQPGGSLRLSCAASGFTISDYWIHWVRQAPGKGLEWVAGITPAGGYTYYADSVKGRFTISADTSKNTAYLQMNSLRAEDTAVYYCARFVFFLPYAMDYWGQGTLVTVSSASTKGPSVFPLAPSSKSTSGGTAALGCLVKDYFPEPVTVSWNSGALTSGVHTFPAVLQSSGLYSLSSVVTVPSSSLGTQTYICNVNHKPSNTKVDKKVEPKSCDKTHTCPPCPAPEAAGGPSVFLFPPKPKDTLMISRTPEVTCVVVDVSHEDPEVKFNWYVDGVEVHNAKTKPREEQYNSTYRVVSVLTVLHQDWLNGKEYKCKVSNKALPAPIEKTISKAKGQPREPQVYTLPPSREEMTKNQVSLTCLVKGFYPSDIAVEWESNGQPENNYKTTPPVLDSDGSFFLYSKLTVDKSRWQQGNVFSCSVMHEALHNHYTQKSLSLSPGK
light: DIQMTQSSSYLSVSLGGRVTITCKASDHINNWLAWYQQKPGNAPRLLISGATSLETGVPSRFSGSGSGKDYTLSITSLQTEDVATYYCQQYWSIPLTFGAGTKLELKRTVAAPDIQMTQSPSSLSASVGDRVTITCRASQDVSTAVAWYQQKPGKAPKLLIYSASFLYSGVPSRFSGSGSGTDFTLTISSLQPEDFATYYCQQSYTTPPTFGQGTKVEIKRTVAAPSVFIFPPSDEQLKSGTASVVCLLNNFYPREAKVQWKVDNALQSGNSQESVTEQDSKDSTYSLSSTLTLSKADYEKHKVYACEVTHQGLSSPVTKSFNRGEC
notes: DVD-Ig; N-term; AB072 (DLL4), C-term; AB070 (VEGF); HC linker short, LC linker short; also called DVD-Ig DVD489; DVD489H/DVD489L
On to B5, for which, in assay [1], the EC50 came to 181 nM.

B6: DVD514 (bispecific antibody, human IgG1, lambda)
heavy: not shown
light: DIQMTQSPSSLSASVGDRVTITCRASQDVSTAVAWYQQKPGKAPKLLIYSASFLYSGVPSRFSGSGSGTDFTLTISSLQPEDFATYYCQQSYTTPPTFGQGTKVEIKRTVAAPQAVVTQESALTTSPGETVTLTCRSSTGAVTTSNYANWVQEKPDHLFTGLIGGTNNRAPGVPARFSGSLIGDKAALTITGAQTEDEAIYFCALWYSNHWVFGGGTKLTVLGQPKAAPSVTLFPPSSEELQANKATLVCLISDFYPGAVTVAWKADSSPVKAGVETTTPSKQSNNKYAASSYLSLTPEQWKSHRSYSCQVTHEGSTVEKTVAPTECS
notes: DVD-Ig; N-term; AB070 (VEGF), C-term; AB073 (DLL4); HC linker short, LC linker short; also called DVD-Ig DVD514; DVD514H/DVD514L
Consider B6, for which the EC50 in assay [2] stood at 67.4 nM.

These data come from patent US20100260668A1 (published 2010).
